# Publication PMC5655142, “Anti-diabetic drug binding site in a mammalian KATP channel revealed by Cryo-EM” (eLife, 2017)
# Target: the molecule itself
# Experiment: cryo-EM structure; purified SUR1/Kir6.2 KATP channel in digitonin, 1 mM ATP (no Mg2+) and 1 µM glibenclamide; C4 symmetry imposed; 3.63 Å
protein,measurement,value
"rat Kir6.2 (natural protein, the final model holds residues 32-352, the distal N- and C-termini were not seen in the map; source: INS-1 clone 832/13 cells, infected with recombinant adenovirus, co-expressed with FLAG-SUR1; purified as the channel complex (digitonin, anti-FLAG M2 agarose, FLAG peptide elution)) MLSRKGIIPEEYVLTRLAEDPTEPRYRTRERRARFVSKKGNCNVAHKNIREQGRFLQDVFTTLVDLKWPHTLLIFTMSFLCSWLLFAMVWWLIAFAHGDLAPGEGTNVPCVTSIHSFSSAFLFSIEVQVTIGFGGRMVTEECPLAILILIVQNIVGLMINAIMLGCIFMKTAQAHRRAETLIFSKHAVITLRHGRLCFMLRVGDLRKSMIISATIHMQVVRKTTSPEGEVVPLHQVDIPMENGVGGNSIFLVAPLIIYHVIDSNSPLYDLAPSDLHHHQDLEIIVILEGVVETTGITTQARTSYLADEILWGQRFVPIVAEEDGRYSVDYSKFGNTVKVPTPLCTARQLDEDRSLLDALTLASSRGPLRKRSVAVAKAKPKFSISPDSLS",stoichiometry N,4
